Patent publication EP4653461A1 (DE NOVO BIOTHERAPEUTICS CO., LTD., dated 2025)
Where two headings read alike, the source gives them in different places.

B1: Hu 2-3 (antibody, V domains shown)
VH: QVQLVQSGAEVKKPGASVKVSCKASGYTFTSYWMNWVRQAPGQGLEWIGMIHPNSDITNYNEKFKSRVTMTVDTSTSTVYMELSSLRSEDTAVYYCARHGRFDYWGQGTTVTVSS
VL: DIQMTQSPSSLSASVGDRVTITCRASQDIGSSLNWLQQKPGKAPKRLIYATSSLDAGVPKRFSGSGSGTDYTLTISSLQPEDFATYYCLQYASSPFTFGGGTKLEIK
notes: Humanized form of 2-3; also called humanized 2-3
B2: Hu 1-2 (antibody, V domains shown)
VH: QVQLVQSGAEVKKPGASVKVSCKASGYTFTDYYLNWVRQAPGQGLEWIGDIDPHNAGTSYNQKFKDRVTMTVDTSTSTVYMELSSLRSEDTAVYYCARFPIYYSGSSPMDYWGQGTLVTVSS
VL: DIQMTQSPSSLSASVGDRVTITCRTNENIFSYLAWYQQKPGKAPKLLIYNAKTLAEGVPSRFSGSGSGTDFTLTISSLQPEDFATYYCQHHYGTPYTFGGGTKLEIK
notes: Humanized form of 1-2; also called humanized 1-2
B3: Hu 2-5 (antibody, V domains shown)
VH: QVQLQESGPGLVKPSQTLSLTCTVSGYSITSDDYWNWIRQPPGKGLEWIGYISYEGSNNYNPSLKNRVTISRDTSKNQFSLKLSSVTAADTAVYYCARLGYPAMDAWGQGTLVTVSS
VL: DIQMTQSPSSLSASVGDRVTITCKASQDINSYLSWFQQKPGKAPKSLIYRANRLVDGVPSRFSGSGSGTDYTLTISSLQPEDFATYYCLQYDEFPWTFGGGTKLEIK
notes: Humanized form of 2-5; also called humanized 2-5

Columns and labels:
[1] = target: T1, 6506GJ130-1A: Human NKP46 Recombinant Protein (His) (human, UniProt O76036 22-258, limits assumed); assay: SPR, Biacore 8K, antibody captured on Protein A chip, NKp46 as analyte
T1 construct: also called human NKp46 protein; not shown: His tag
T1 sequence (O76036 22-258 limits assumed): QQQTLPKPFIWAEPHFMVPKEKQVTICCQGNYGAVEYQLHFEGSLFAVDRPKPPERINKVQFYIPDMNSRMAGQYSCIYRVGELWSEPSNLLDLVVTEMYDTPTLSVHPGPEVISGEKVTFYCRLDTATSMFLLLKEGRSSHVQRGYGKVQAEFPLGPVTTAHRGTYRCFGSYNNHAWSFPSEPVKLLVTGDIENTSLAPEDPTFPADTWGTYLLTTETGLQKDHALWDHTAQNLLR

[2] = target: T1, 6506GJ130-1A: Human NKP46 Recombinant …; assay: SPR, Biacore 8K; reference 2-3
[3] = target: T1, 6506GJ130-1A: Human NKP46 Recombinant …; assay: SPR, Biacore 8K, antibody captured on Protein A chip, NKp46 as analyte; remark: listed apart in the source
[4] = target: T1, 6506GJ130-1A: Human NKP46 Recombinant …; assay: SPR, Biacore 8K; reference 1-2
[5] = target: T1, 6506GJ130-1A: Human NKP46 Recombinant …; assay: SPR, Biacore 8K; reference 2-5

Row | Binder | Kd [1] [nM] | koff [1] [s⁻¹] | kon [1] [M⁻¹ s⁻¹] | fold change of KD against the unhumanized antibody [2] [fold] | Kd [3] [nM] | fold change of KD against the unhumanized antibody [4] [fold] | fold change of KD against the unhumanized antibody [5] [fold]
1 | B1 | 0.421 | 0.000138 | 328000 | ≤ 2 | 0.42 to 8.7 |  | 
2 | B2 | 8.66 | 0.000118 | 13700 |  | 0.42 to 8.7 | ≤ 2 | 
3 | B3 | 3.83 | 7.05e-05 | 18400 |  |  |  | ≤ 2
